Common to all, as to assay: cell-based or functional assay
Assay [1] has as its target human glucagon receptor (GCGR) (human, UniProt P47871 26-477).
In assay [2] the target is human glucagon-like peptide 1 receptor (GLP-1R) (human, UniProt P43220 24-463).
The target in assay [3] is T1, human Glucagon-like peptide 2 receptor (GLP-2R) (human, UniProt O95838 1-553).
T1 sequence (looked up): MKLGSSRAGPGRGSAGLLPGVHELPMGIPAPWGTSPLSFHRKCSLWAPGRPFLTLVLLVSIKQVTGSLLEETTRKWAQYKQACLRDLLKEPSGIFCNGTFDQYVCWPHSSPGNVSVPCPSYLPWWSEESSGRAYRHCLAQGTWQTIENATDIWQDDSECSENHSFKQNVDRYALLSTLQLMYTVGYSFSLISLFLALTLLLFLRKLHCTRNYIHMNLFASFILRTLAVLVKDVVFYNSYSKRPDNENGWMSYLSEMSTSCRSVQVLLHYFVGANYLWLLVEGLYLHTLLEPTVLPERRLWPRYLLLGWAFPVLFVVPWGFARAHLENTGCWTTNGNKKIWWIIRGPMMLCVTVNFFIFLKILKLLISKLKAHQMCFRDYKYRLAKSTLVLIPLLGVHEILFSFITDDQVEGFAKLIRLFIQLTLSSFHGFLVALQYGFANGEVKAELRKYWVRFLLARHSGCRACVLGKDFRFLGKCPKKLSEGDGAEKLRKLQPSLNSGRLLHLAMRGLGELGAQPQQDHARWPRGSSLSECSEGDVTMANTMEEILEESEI

Bridges are numbered along the chain shown (N, C = ends). Primed or numbered codes have the meaning given here. Where no end group is shown, it is not given here. [ ]: non-standard residue; d: D form. L1″ = C4 bis(bromoacetamide) staple without lipid, joins two Cys through thioethers; L4″ = octadecanedioic acid-PEG-ornithine staple, joins two Cys through thioethers; L2″ = myristic acid-PEG-ornithine staple, joins two Cys through thioethers; L6″ = as L5, made on Rink amide resin, joins two Cys through thioethers; L1 = C4 bis(bromoacetamide) staple without lipid; L4 = octadecanedioic acid-PEG-ornithine staple; L3 = myristic acid-PEG-PEG-ornithine staple; L5 = C18 diacid-Lys-PEG2-ornithine staple; L2 = myristic acid-PEG-ornithine staple; L6 = made as L5 but on Rink amide resin; L11 = not defined here; L12 = not defined here; L13 = not defined here; L7 = not defined here; L8 = not defined here; L9 = not defined here

human glucagon receptor (GCGR), sequence (P47871 26-477): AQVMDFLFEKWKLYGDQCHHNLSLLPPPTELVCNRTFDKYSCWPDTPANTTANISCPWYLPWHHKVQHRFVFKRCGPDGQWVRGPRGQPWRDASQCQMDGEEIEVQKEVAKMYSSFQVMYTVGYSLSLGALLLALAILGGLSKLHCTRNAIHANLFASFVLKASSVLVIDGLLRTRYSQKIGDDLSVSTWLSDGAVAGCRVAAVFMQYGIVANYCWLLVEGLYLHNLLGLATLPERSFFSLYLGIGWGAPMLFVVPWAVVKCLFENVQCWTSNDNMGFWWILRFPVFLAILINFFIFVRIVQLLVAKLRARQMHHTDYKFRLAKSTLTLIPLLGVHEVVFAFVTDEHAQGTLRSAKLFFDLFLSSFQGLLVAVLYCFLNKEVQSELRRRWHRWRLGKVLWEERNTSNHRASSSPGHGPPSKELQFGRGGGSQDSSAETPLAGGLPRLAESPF

B1: mTA 21: OXM (B) and L8 (peptide)
peptide: H[dS]QGTFTSDYSKYLDECAAKEFICWLMNTKRNRNNIA
modifications: linker 17-24 via L8; reading uncertain; also: printed as HsQGTFTSDYSKYLDEXAAKEFIXWLMNTKRNRNNIA
For the molecule B1, the “EC50, CRE-luciferase reporter in HEK293-GCGR-CRE cells” value (“EC50 … in HEK293-GCGR-CRE cells” for short) in assay [1] came out at 0.7 nM. Also, the “EC50, CRE-luciferase reporter in HEK293-GLP-1R-CRE cells” value (from here on “EC50 … in HEK293-GLP-1R-CRE cells”) in assay [2] worked out at 0.12 nM.
With HGDGSFSDEMNTILDNCAARDFICWLIQTKITD (linker 17-24 via L1) [mTA 46: GLP-2 (A) and L1], the “EC50, CRE-luciferase reporter in HEK293-GLP-2R-CRE cells” value (“EC50 … in HEK293-GLP-2R-CRE cells” below) in assay [3] was 0.045 nM.
As to HGDGSFSDEMNTILDCLAARDFICWLIQTKITD (linker 16-24 via L1) [mTA 52: GLP-2 (C) and L1], in assay [3], the “EC50 … in HEK293-GLP-2R-CRE cells” value was determined as 5.6 nM.
The same measure, in the same setting: under HGDGSFSDEMNTILDNCAARDFICWLIQTKITD (linker 17-24 via L2) [mTA 47: GLP-2 (A) and L2] stands 0.041 nM; under HGDGSFSDEMNTILDNCAARDFICWLIQTKITD (linker 17-24 via L3) [mTA 48: GLP-2 (A) and L3], 0.045 nM.
As to HGDGSFSDEMNTILDNCAARDFICWLIQTKITD (linker 17-24 via L6) [mTA 51: GLP-2 (A) and L6], in assay [3], the “EC50 … in HEK293-GLP-2R-CRE cells” value came to 0.7 nM.
On the same count and under the same terms, in the case of HGDGSFSDEMNTILDNCAARDFICWLIQTKITD (linker 17-24 via L5) [mTA 50: GLP-2 (A) and L5] it was 6.4 nM; in that of HGDGSFSDEMNTILDNCAARDFICWLIQTKITD (linker 17-24 via L4) [mTA 49: GLP-2 (A) and L4], 0.241 nM.
H[dS]QGTFTSDYSKYLDECAAKEFICWLMNTKRNRNNIA (linker 17-24 via L2″) [mTA 16: OXM (B) and L2]: in assay [1], the “EC50 … in HEK293-GCGR-CRE cells” value was found to be 0.3 nM. The “EC50 … in HEK293-GLP-1R-CRE cells” value in assay [2] came to 0.04 nM.

B2: mTA 24: OXM (B) and L11 (peptide)
peptide: H[dS]QGTFTSDYSKYLDECAAKEFICWLMNTKRNRNNIA
modifications: linker 17-24 via L11; reading uncertain; also: printed as HsQGTFTSDYSKYLDEXAAKEFIXWLMNTKRNRNNIA
For the molecule B2, the “EC50 … in HEK293-GCGR-CRE cells” value in assay [1] was found to be 3 nM. Moreover, the “EC50 … in HEK293-GLP-1R-CRE cells” value in assay [2] came out at 0.2 nM.
As to H[dS]QGTFTSDYSKYLDSCAAHDFVCWLLRA (linker 17-24 via L2) [mTA 28: GLP-1/Glucagon (A) and L2], the “EC50 … in HEK293-GCGR-CRE cells” value in assay [1] stood at 0.1 nM. For the same molecule, the “EC50 … in HEK293-GLP-1R-CRE cells” value in assay [2] came to 0.1 nM.
For the molecule H[dS]QGTFTSDYSKYLDECAAKEFICWLLRA (linker 17-24 via L4) [mTA 31: GLP-1/Glucagon (B) and L4], the “EC50 … in HEK293-GCGR-CRE cells” value in assay [1] was 0.12 nM. In addition, the “EC50 … in HEK293-GLP-1R-CRE cells” value in assay [2] was found to be 0.03 nM.
For H[dS]QGTFTSDYSKYLDSCAAHDFVCWLLRA (linker 17-24 via L1) [mTA 27: GLP-1/Glucagon (A) and L1], in assay [1], the “EC50 … in HEK293-GCGR-CRE cells” value was determined as 0.04 nM. Further, the “EC50 … in HEK293-GLP-1R-CRE cells” value in assay [2] was 0.2 nM.
H[dS]QGTFTSDYSKYLDECAAKEFICWLMNTKRNRNNIA (linker 17-24 via L5) [mTA 18: OXM (B) and L5]: the “EC50 … in HEK293-GLP-1R-CRE cells” value in assay [2] stood at 0.2 nM.
On to H[dS]QGTFTSDYSKYLDECAAKEFICWLLRA (linker 17-24 via L6) [mTA 33: GLP-1/Glucagon (B) and L6], for which the “EC50 … in HEK293-GCGR-CRE cells” value in assay [1] came out at 0.4 nM. Also, in assay [2], the “EC50 … in HEK293-GLP-1R-CRE cells” value is 0.05 nM.
Regarding H[dS]QGTFTSDYSKYLDECAAKEFICWLLNGGPSSGAPPPS (linker 17-24 via L5) [mTA 38: GLP-1/Glucagon (D) and L5], the “EC50 … in HEK293-GCGR-CRE cells” value in assay [1] amounted to 0.4 nM. Besides, in assay [2], the “EC50 … in HEK293-GLP-1R-CRE cells” value was 0.04 nM.

B3: mTA 20: OXM (B) and L7 (peptide)
peptide: H[dS]QGTFTSDYSKYLDECAAKEFICWLMNTKRNRNNIA
modifications: linker 17-24 via L7; reading uncertain; also: printed as HsQGTFTSDYSKYLDEXAAKEFIXWLMNTKRNRNNIA
B3: in assay [1], the “EC50 … in HEK293-GCGR-CRE cells” value was found to be 5.4 nM. Moreover, the “EC50 … in HEK293-GLP-1R-CRE cells” value in assay [2] stood at 17 nM.
Turning to H[dS]QGTFTSDYSKYLDECAAKEFICWLLRA (linker 17-24 via L1) [mTA 29: GLP-1/Glucagon (B) and L1], the “EC50 … in HEK293-GCGR-CRE cells” value in assay [1] was 0.03 nM. Also, in assay [2], the “EC50 … in HEK293-GLP-1R-CRE cells” value is 0.03 nM.

B4: mTA 22: OXM (B) and L9 (peptide)
peptide: H[dS]QGTFTSDYSKYLDECAAKEFICWLMNTKRNRNNIA
modifications: linker 17-24 via L9; not fully specified; printed as HsQGTFTSDYSKYLDEXAAKEFIXWLMNTKRNRNNIA; reading uncertain
Regarding B4, the “EC50 … in HEK293-GCGR-CRE cells” value in assay [1] worked out at 14 nM. The “EC50 … in HEK293-GLP-1R-CRE cells” value in assay [2] is 40 nM.
For the molecule H[dS]QGTFTSDYSKYLDECAAKEFICWLLRAGPSSGAPPPS (linker 17-24 via L6) [mTA 36: GLP-1/Glucagon (C) and L6], the “EC50 … in HEK293-GCGR-CRE cells” value in assay [1] came to 0.5 nM. In addition, in assay [2], the “EC50 … in HEK293-GLP-1R-CRE cells” value came to 0.3 nM.

B5: mTA 25: OXM (B) and L12 (peptide)
peptide: H[dS]QGTFTSDYSKYLDECAAKEFICWLMNTKRNRNNIA
modifications: linker 17-24 via L12; reading uncertain; also: printed as HsQGTFTSDYSKYLDEXAAKEFIXWLMNTKRNRNNIA
B5: the “EC50 … in HEK293-GCGR-CRE cells” value in assay [1] is 0.5 nM. Besides, the “EC50 … in HEK293-GLP-1R-CRE cells” value in assay [2] worked out at 0.1 nM.
For H[dS]QGTFTSDYSKYLDECAAKEFICWLLRAGPSSGAPPPS (linker 17-24 via L4) [mTA 34: GLP-1/Glucagon (C) and L4] the same measures were 0.4 nM and 0.04 nM.
H[dS]QGTFTSDYSKYLDECAAKEFICWLLRA (linker 17-24 via L5) [mTA 32: GLP-1/Glucagon (B) and L5]: the “EC50 … in HEK293-GCGR-CRE cells” value in assay [1] came out at 1 nM. Moreover, the “EC50 … in HEK293-GLP-1R-CRE cells” value in assay [2] was found to be 0.3 nM.

B6: mTA 26: OXM (B) and L13 (peptide)
peptide: H[dS]QGTFTSDYSKYLDECAAKEFICWLMNTKRNRNNIA
modifications: linker 17-24 via L13; reading uncertain; also: printed as HsQGTFTSDYSKYLDEXAAKEFIXWLMNTKRNRNNIA
As for B6, the “EC50 … in HEK293-GCGR-CRE cells” value in assay [1] came out at 0.5 nM. For the same molecule, the “EC50 … in HEK293-GLP-1R-CRE cells” value in assay [2] came to 0.05 nM.
Turning to H[dS]QGTFTSDYSKYLDECAAKEFICWLMNTKRNRNNIA (linker 17-24 via L4″) [mTA 17: OXM (B) and L4], the “EC50 … in HEK293-GCGR-CRE cells” value in assay [1] was 3 nM. Besides, the “EC50 … in HEK293-GLP-1R-CRE cells” value in assay [2] was 2 nM.
H[dS]QGTFTSDYSKYLDECAAKEFICWLLNGGPSSGAPPPS (linker 17-24 via L6) [mTA 39: GLP-1/Glucagon (D) and L6]: in assay [1], the “EC50 … in HEK293-GCGR-CRE cells” value was 0.3 nM. Moreover, in assay [2], the “EC50 … in HEK293-GLP-1R-CRE cells” value turned out to be 0.04 nM.
In the case of H[dS]QGTFTSDYSKYLDECAAKEFICWLLRA (linker 17-24 via L2) [mTA 30: GLP-1/Glucagon (B) and L2], the “EC50 … in HEK293-GCGR-CRE cells” value in assay [1] was found to be 0.05 nM. Besides, the “EC50 … in HEK293-GLP-1R-CRE cells” value in assay [2] came out at 0.03 nM.
As to H[dS]QGTFTSDYSKYLDECAAKEFICWLLNGGPSSGAPPPS (linker 17-24 via L4) [mTA 37: GLP-1/Glucagon (D) and L4], the “EC50 … in HEK293-GCGR-CRE cells” value in assay [1] came out at 0.2 nM. In assay [2], the “EC50 … in HEK293-GLP-1R-CRE cells” value is 0.03 nM.
In the case of H[dS]QGTFTSDYSKYLDECAAKEFICWLMNTKRNRNNIA (linker 17-24 via L6″) [mTA 19: OXM (B) and L6], the “EC50 … in HEK293-GLP-1R-CRE cells” value in assay [2] is 0.2 nM.
For the molecule H[dS]QGTFTSDYSKYLDECAAKEFICWLMNTKRNRNNIA (linker 17-24 via L1″) [mTA 15: OXM (B) and L1], in assay [1], the “EC50 … in HEK293-GCGR-CRE cells” value worked out at 0.2 nM. For the same molecule, the “EC50 … in HEK293-GLP-1R-CRE cells” value in assay [2] came to 0.03 nM.
With H[dS]QGTFTSDYSKYLDECAAKEFICWLLRAGPSSGAPPPS (linker 17-24 via L5) [mTA 35: GLP-1/Glucagon (C) and L5], the “EC50 … in HEK293-GCGR-CRE cells” value in assay [1] was found to be 1 nM. In addition, the “EC50 … in HEK293-GLP-1R-CRE cells” value in assay [2] was determined as 0.5 nM.
